{"source": "paper PMC10465527", "target": "B55α/δ regulatory subunit of PP2A (human (endogenous in HAP1)) (UniProt P63151)", "sequence (P63151 whole entry, stated change not applied)": "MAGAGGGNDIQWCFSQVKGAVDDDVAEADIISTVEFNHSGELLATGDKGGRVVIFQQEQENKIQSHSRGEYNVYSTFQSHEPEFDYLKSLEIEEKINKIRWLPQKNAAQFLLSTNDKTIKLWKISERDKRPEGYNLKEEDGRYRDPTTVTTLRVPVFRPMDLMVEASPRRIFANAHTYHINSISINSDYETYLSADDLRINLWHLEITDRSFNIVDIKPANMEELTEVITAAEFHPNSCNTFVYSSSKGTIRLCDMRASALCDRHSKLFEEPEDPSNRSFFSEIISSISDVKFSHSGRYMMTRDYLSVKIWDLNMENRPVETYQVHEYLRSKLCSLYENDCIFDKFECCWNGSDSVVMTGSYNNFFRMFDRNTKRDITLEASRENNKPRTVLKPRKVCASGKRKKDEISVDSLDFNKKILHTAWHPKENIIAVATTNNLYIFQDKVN", "assay": "co-IP; B56α (1D3-E12) or B55α/δ (2G9) antibody crosslinked to protein G-Sepharose, 1 h with lysates of HAP1 wild-type and lcmt1-/- cells; lysis buffer 10% glycerol, 135 mM NaCl, 20 mM Tris pH 8.0, 1% Nonidet P-40; immunoblot, co-precipitated A and C normalised to the B subunit", "data": [{"substance": "non-methylated PP2A-C (catalytic C subunit of PP2A) (from UniProt P67775 1-309) (natural protein)", "values": [{"measurement": "trimeric holoenzyme level relative to wild-type cells (of the levels in wild-type cells)", "result": 0.33}]}]}
